Assay results from the supplement of paper PMC10567573.

B1: KIAA0774 (parent)
chain: FEDEVKRLGWQQQAELQELEERLQ

Variants of: B1
Assay: protein stability index of a GFP-peptide fusion (GPS, HEK-293T) (PSI 1-6); higher = more stable
Conditions: c terminus: a fixed tail appended
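Note: lentivirally expressed fusions sorted by FACS into six bins by GFP to DsRed ratio, PSI derived from sequencing read proportions per bin multiplied by bin number.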

Protein stability index: each site, then its substitutions
V5: C 3.6, S 3.47, L 3.4, F 2.77, M 4.19, H 4.15, N 4.08, A 3.86, D 4.37, Y 4.24, E 4.44, W 3.5, G 3.99, K 2.54, R 2.75, Q 4.13, T 3.5, I 3.87, P 4.01
E4: V 3.33, Y 3.64, W 2.81, S 2.83, T 3.2, P 3.56, N 3.49, R 3.32, Q 3.26
K6: I 3.39, G 4.5, P 4.48, R 4.03, W 3.89, E 4.67, S 4.47, H 4.14, M 4.17, T 4.31, F 4.38, V 4.52, D 3.75, N 4.16, A 4.54, Y 4.4, Q 4.07, L 4.12, C 3.87
E15: I 2.64, D 4.46, T 3.87, C 3.39, G 3.85, S 4.05, F 2.42, K 3.2, H 3.53, L 3.13, M 3.32, N 4.51, W 2.85, A 2.74, P 3.71, R 2.92, V 3.65, Y 2.65
R7: T 4.45, I 3.67, S 4.65, W 4.03, K 3.32, L 3.68, M 4.41, V 3.9, A 4.65, N 4.12, Y 4.21, F 4.32, G 4.9, C 4.61, Q 4.79, H 4.04, D 4.89, E 4.53, P 4.19
E21: C 4.38, Y 3.88, Q 4.67, I 3.79, W 2.91, M 4.32, F 4.07, A 4.69, L 4.71, K 4.76, T 4.69, P 4.51, G 4.76, D 4.27, V 4.14, H 4.41, N 3.17, S 4.17, R 4.46
L8: T 3.93, I 3.86, A 3.66, Y 3.72, K 3.57, Q 4.48, D 4.77, W 3.4, M 2.83, S 3.88, N 3.48, G 3.42, R 4.05, P 4.45, E 4.52, V 4.25, H 3.79, F 3.98
G9: L 3.15, H 4.11, R 3.75, M 3.13, K 3.23, F 3.96, W 3.54, N 2.62, E 4.63, C 3.36, A 3.83, T 2.04, S 1.91, I 3.73, V 4.02, D 3.9, Q 3.83, P 4.17, Y 4.13
R22: C 4.48, F 4.62, A 4.99, D 5.9, E 5.78
Q17: W 2.31, G 5.2, K 4.88, R 4.71, C 4.01, F 3.98, Y 3.26, I 4.25, N 5.34, P 4.91, S 4.75, H 4.34, V 4.51, T 4.78, A 4.22, E 3.12, L 4.54, M 4.57, D 3.55
Q12: E 4.09, F 2.78, T 3.45, P 5.22, M 3.13, A 3.83, R 3, V 2.83, N 4.8, G 4.14, K 4.03, D 4.85, Y 2.31, C 2.14, L 2.85, I 2.45, W 2.9, H 3.1, S 5.12
L16: D 5.11, V 4.86, H 4.84, W 3.93, G 5.23, T 5.08, P 5.24, K 4.88, N 4.87, M 4.48, S 4.91, Q 4.09, F 4.15, E 5.1, I 3.89, C 4.75, R 4.04, A 4.34, Y 4.13
L19: P 5.42, T 4.65, C 4.43, S 4.39, R 3.68, A 3.48, Y 4.14, M 4.42, G 5.4, E 5.22, Q 4.17, N 5.2, H 4.08, D 5.22, F 4.12, K 3.24, W 3.92, V 4.53, I 4.27
E18: C 3.17, S 4.7, Q 3.91, I 1.74, M 2.89, V 3.84, D 4.61, G 4.68, Y 2.69, L 2.63, A 3.84, P 4.72, R 2.74, T 4.47, W 2.4, H 3.37, N 3.94, K 4.41, F 2.13
A14: D 5.2, L 1.85, C 3, T 2.53, Y 2.29, K 5.32, I 1.73, E 5.64, P 5.4, H 4.27, N 4.64, Q 4.61, G 5.26, S 4.44, F 2.63, M 4.37, R 4.7, W 2.53
Q13: G 5.35, L 3.5, K 3.77, S 5.01, N 5.2, E 5.03, C 4.83, T 3.74, Y 3.58, H 4.39, D 4.76, P 5.11, F 4.42, M 2.6, A 4.31, R 2.99, V 3.86, W 3.67, I 3.44
Q11: H 5.08, M 3.79, A 3.64, R 4.44, V 1.72, L 4.46, G 4.84, Y 4.76, S 4.4, F 3.73, K 4.41, P 4.57, E 4.83, W 4.16, C 3.86, T 3.3, D 5.16, I 3.88, N 4.52
W10: Q 5.71, I 4.66, E 5.57, K 5.13, D 5.8, T 5.13, P 5.11, R 5.5, L 5.35, M 5.65, S 4.84, C 4.97, F 4.41, G 5.07, Y 4.86, V 4.69, A 5.49, H 5.09, N 5.54
E20: P 4.8, Y 3.71, H 4.29, N 4.32, A 4.08, F 2.51, W 3.05, C 4.34, S 4.49, I 3.74, M 3.81, Q 3.9, T 3.53, L 3.38, D 4.84, G 3.05, K 4.4, V 3.49, R 3.87
